In a protein production outcome set (Wang et al. 2014):

Assay: label from the status in PepcDB records
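Further: failed if final PepcDB status was selected cloned or expressed and not failed if soluble or beyond.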

Row | Sequence | protein production
1 | TIATSGKLNWGIRESFNNYTNGASKVEDGATLISTNNFEFKLEKATYDAAKERTEAQFRGKIVYLKYCDDMKTFTNCQLDLTIKDPKIVISNEENYVEAVVDSKQYPSGEWYKSNGPVKIANLYPGSATVDSKDNSTEWTNVVSALANPGGVKMFSEFYGENEGLAPLSFSYDG | failed
2 | MLPVSTSVQRSTRQQKITYLYNRNEQSNKKAVTMKTTTTETSIPEEKTTSARIQAYSKSQLAALYLPHIQPASARRTLRSWIAKNTELQAALARSGYTGKAILLTPAQVGLFFRFLGEP | failed
3 | RALRRRGGDAAAKLAGLVLIAPAPDFTEALMWKGFSPEIRAEIETKGVWHRPSEYGEPYPITKALIEDGRNHLVLDGMIEVGCPVRILQGKQDEDVPWRHAFELAERLPTDDVVLTMIQDGDHRLSRPQDIARMLAAVEE | failed
4 | MSLKTLNIYLMRHGKVDAAPGLHGQTDLKVKEAEQQRIAMAWKTKGYDVAGIISSPLSRCHDLAQILAEQQLLPMTTEDDLQEMDFGDFDGMPFDLLTEHWKKLDAFWQSPAHHSLPNAESLSTFSQRVSRAWSQIINDINDNLLIVTHGGVIRIILAHVLGVDWRNPQWYSTLAIGNASVTHITITIDDQIYASVRSIGVPLVEEGHHHHHH | not failed
5 | MIRFEIHGENLTITDAIRNYIEEKIGKLERYFNDVPNATAHVKVKTYQNSATKIEVTIPLKKVTLRAEERNDDLYAGIDLINNKLERQVRKYKTRVNRRNRNRGEQEAFASLPEEKEAVEIQNDENEADNEIEIIRAKNFSLKPMDSEEAVLQMDLLGHDFFIFTDRETDGTSIVYKRKDGKYGLIETTELEHHHHHH | failed
6 | RTHTGEKPYACSHCDKTFRQKQLLDMHFKRYHDPNFVPAAFVCSKCGKTFTRRNTMARHADNCAGPDGVEGEN | not failed
7 | EVILGDGIFPLTALAVGKDDRAFAVIRTAGGQAPHPDVDFPELSSTGLLLSSLKPADRALLPEGTPDREVSIDLGGQMMPYEWRILTDGQSSSATVQEGQRLRMVMRNRTMMPHPMHIHGHTWALPGSGGLRKDTVLLRHGETMIADLIADNPGEWAFHCHNAYHMETGMLSSLRYE | failed
8 | MLIYEGHIDKLIRRGQEKGLDIFNLIRAAVINPVEHYGLNVGLLREGDPADFITVDDLKSFNVLSTFIDGECVYENGKVLFPMKLEHHHHHH | not failed
9 | MPSSMLSHDPVLTWSIVALATAGVIIRPMRWPEAVWAVAGAVALVALGLLSWQDALAGVRNGIDVYLFLIGMMLIAELAQREGLFDYLAAYAVEHARGSPQRLFLLVYAVGVLVTVLLSNDATAIVLTPAVYAATRAAGAAPLPYLFVCAFIANAASFVLPISNPANLVVFGEHMPHLGGWLQQFTLPSLAAILATYLVLRLALRRSLAGQTIETRVETPHLSRGGKLAAVGIGAIAIVLLTASALNVALGLPTFVCGLVTTAVVLAIARQSPVPVLKGVSWSVVPLVAGLFVMVEALSRTGVIGALGGLLREAVADAPRLGSWAAGIVTAIACNIGNNLPVGLVAGSVAADNHLPRETIAALLIGVDLGPNFSVTGSLATILWLVVLRRNQIEVTAWRFLKLGLVVTPPALIAALAAAVW | failed
10 | SGEKSENCGVPEDLLNGLKVTDTQEAECAGPPVPDPKNQHSQSKLLRDDEAHLQEDQGEEECFHDCSASFEEEPGADKVENKSNEDVNSSELDEEYLIELKKNMSDEEKQKRREESTRLKEEGNEQFKKGDYIEAESSYSRALEMCPSCFQKERSILFSNRAAARMKQDKKEMAINDCSKAIQLNPSYIRAILRRAELYEKTDKLDEALEDYKSILEKDPSIHQAREACMRLPKQIEERNERLKEEMLGKLKDLGNLVLRPFGLSTENFQIKQDSSTGSYSINFVQNPNNNR | not failed
11 | NAVHFGAGNIGRGFIGKLLADAEVEVTFADVDVPLVDQLSHKQEYKVKVVGTECKIDTVTHVTAVNSASEDVIDRIVKTDLVTTAVGPNVLDIIAKTIAKGIAKRFEAGNDAPLNIIACENMVRGTTHLKGEVYKHLDKSLHAKADELVGFVDSAVDRIVPPAEAANDDPLEVTVESFSEWIVDEQQFKGDIPNIAGMEKTNN | not failed
12 | MSAPHDSHTLINVLTLNAHMGFDLLKRRFILAALREAIREVCAEIVCLQEVLGEHALHARRHAQWPAVAHYEYLAEMLWPQFSYGRNAVYPHGHHGNAVLSKFPISSFANHDVSVPGHEPRGVLHAVLQVPGWSEELQVFCVHLGLHEAHRQQQIGLLCARVAALSADAPVVVAGDFNDWRARGHPLLTRCGLVEAVECMHGRVARSFPSRFPVLPLDRIYLRNLRVVQARVLSGLPWSRLSDHLPLLASIAP | failed
13 | MTDKTPWSLRSVGNPSPIEIAMMLLSLLSVIIVLVMTFGRLDKETYRLLFFIDTTICMIFMVNFFAGLFRARDKLFYLRHHWIDFIASIPAIEALRIARVFQILRVIRLIRMSRSFLIPLIKQRKQATLASLLVAMVTILTFASIIILIIESGTEGANIQTAEQAIWWALVTISTVGYGDFYPVSTAGHIVGGIVIVSGVSFFGVISGYMASVFVAPDESERQERQDAHKAEIKSELELALARMEENQRQMELNQAQMLTKIAELKQALEDKKG | failed
14 | MGHFDTPSLSRDAALLPDTGEPGFGVYVHWPFCAAKCPYCDFNSHVRHQPVDQERFAAAFLKEMAAVRAMSGPKTVTSIFLGGGTPSLMKPETVSAILDGIARHWHVPAGIEITMEANPSSVEAERFRGYRAAGVNRVSLGVQALNDRDLKFLGRLHDVADALKAIRLAREIFPRMSFDLIYARPDQTVDEWEKELKEAISYAVDHLSLYQLTIEEGTPFFGLHKSGKLIVPDGEQSALLYEATQEITAREGMPAYEVSNHARPGAESRHNLTYWRYGDYAGIGPGAHGRLTRGHEKLATATERKPEAWLEMVERDGHGILDEERLGFEEQSDELLLMGLRLREGVDLARWQQLSGRELDPKREEFLLEHKFIERIGNSRLRCTSAGMLILDSVVADLAC | failed
15 | MGETTVGHVAGEVVRALYGAGYMESTIGQYRKSIRALERYAGGPDAVYTRGLGAGFAASTFSERTGGFSRQRWFDYGRLARLCDSYLRSGSVDLGKWRRSRLAEPVVPGLAVVMERWEAYLAGSGLASATVGHYRRMAGLFLTWLESHGVVSLDGSDGSHVLGFLAGLRSRWSESSMRHAASDLRPLFRWLGRDDLADAIGLAGIRRTHAIAGTLPDDEHRRLLEACASRSVPSRDAAITLLSLTCGLRACDVIGLRIADVDWDSMSIGLVQRKTGNPLTVPMTGPLAARLASWLLDERPATDDDRVFVRYKAPHVALRGHSSVYEAISRVMRHAGLGRRGGSRLLRRNAATRMLEAATPLPTISAVLGHADPDSTRVYMATHRGGMLACVLPVPEGGSS | failed
16 | MTTENTTALLLIDFQNDYFSTYNGAKNPLVGTEAAAEQGAKLLAKFRQQGLPVVHVRHEFPTDEAPFFLPGSDGAKIHPSVAAQEGEAVVLKHQINSFRDTDLKKVLDDAGIKKLVIVGAMTHMCIDAVTRAAEDLGYECAVAHDACATLDLEFNGITVPAAQVHAAFMSALSFAYANVASADELIAGL | not failed
17 | MGKDAKAGGKGKGKQASGSEEAPSKGKGKAGKAADGLGTCTYVKARHVLCEKQGKINEAYKKLQDGWLSNGDKVPPAEFAKIAAEYSECPSGKKGGDLGWFPRGKMAGPFQDVAFNTPVGVTSAPFKSTHGYHIILSEGRKN | failed
18 | MSDKRDARFYQEVLDICLTAGRLMIEGGSEMYRVEDTMLRIARNADINDPRVFATPTCVFMSLDGGKLSQMKQIRDRNINLELVDRVNELSREFATKKIDLSELKNRIIEVANAPSFPMWMQIIGAAVLSATLMVLFMDDYDWVDFPGAALVGAIGFWAYYEFKKYTKVRFLSELIAAMIMGVLALGLNYLYPKMIIDNILIGALMTLVPGLAMTNALRDLFMGDLLSGIVRMCEAILSALALGGGVGLVLKFVGG | failed
19 | MSSSSGNQNSKEHKVAVTHDLGKTNVPEHPKRVVVLELGFIDTLLDLGITPVGVADDNKAKQLINKDVLKKIDGYTSVGTRSQPSMEKIASLKPDLIIADTTRHKKVYDQLKKIAPTIALNNLNADYQDTIDASLTIAKAVGKEKEMEKKLTAHEEKLSETKQKISANSQSVLLIGNTNDTIMARDENFFTSRLLTQVGYRYAISTSGNSDSSNGGDSVNMKMTLEQLLKTDPDVIILMTGKTDDLDADGKRPIEKNVLWKKLKAVKNGHVYHVDRAVWSLRRSVDGANAILDELQKEMPAAKKLEHHHHHH | failed
20 | MRRQTMVKAGAVACAVALLGSLSACGGSKKSTTTADGKPIVTVLVKKNANQEKMANMQWAKDLEADCDCKIEWQEVTREAWAQQKNATLASGDIADVNLNGYGAVEAYQYPGMFEDLSKDLDKLPNVKAFFKQKPDAKKMSTDSKGRIYAIADGRGKAYSGTGQHMLINKAWLDKLGLQVPTTWDELENVLKAFKTQDPNGNGQADEIPMNIKKLEGSYFTWYSPMLLLNSTGIVTGFNKGVSEYGFYAKNGVVKSFLTSDEYKEVIKYYHKLISEGLIPAEWATKDDDAYNADQISDGKTAKTGVVFGWSPSDNFGKLKDQYIAMPVPSAPGVSPDQTVWDGSSSELSPAGLSISSHAANKDAALKLANLLYSEKYSVQQFLGSFGKAITKTGEHEYTVDNDKLSQLTGDNQYPGLSELLVGWIPDEATIKGDTHADELIEVNKVYEEQRSHFDPVKDYIPDYVNMDNMDPSDATKLNTNNAEIFNTTMQKTATWMSKGGIDEEWDAYCKQLDSIGLQESTKIWQKWYDTYTK | not failed
21 | GFAAYIWGSDFSFEVSAYAVAEREVPVADWVLRRIVPYRKCYGIDPEEFSSYRNAADSEIFMAYLDDQPVGHVVVSTNWNGYAHIDELAVHAPARRHGVARALLDVAQFWSRRKKLPGMMLETQNNNLGACRLYEQCGYVVGGVDHLRYRGIDPQTAEVAIFWYRLFANELE | failed
22 | MITGTLINALTVVFASLLGLAIGSRLSESIRGAIINVLGLAVLLIGISMALETKNVLIPTLSVVAGTAVGEVMGIEKALQSFGDRVERRLGKGRFSEGFVAATLLYCVGPMAILGPIQEGLTGDMSVLMAKSLLDGVASVALASALGIGVAFSSISILVYQGFFALLAAQLSSVVTERIIAEFTSTGGLLIMGIGINLLELRKLRVGNMLPALIFAPLIVAVLQLTGL | failed
23 | MITLQKAEASDLEKIIAIQRASFKAVYEKYHDQYDPYVEEVEQIRWKLVERPDCFYHFVLVDETIVGFLRLVIKDEEKRAWLGTAAILPQYQGQGYGSAAMALLEKTYPKLTKWDLCTIAQEKLMVSFYEKCGYHSTHTEPEQEGMDMVYMTKKIE | failed
24 | MGAMAEIQFIRGINEEVVPDVRLTRARDGSSGQAMFYFDNPKIVQEGNLEVTGMYMVDEEGEIVTRDVNAKFINGQPVAIEATYTMRSPQEWDRFIRFMDRYAASHGLGFQKSENS | failed
25 | MEVKMNEIMEALEQSELIIIHRHLRPDPDAYGSQLGLKYYLQKKFPNKQIYAVGANEDSLKFIGLMDEIDDDMYKKATVVVCDTANAPRIDDQRYDTGTKLLKIDHHPATDQYGDINYVNTKASSTSEIIYEFILHFNDEHIIDEQVARVLYLGIVGDTGRFLFNNTTPRTMQIAGKLLTYPFDHNQELNKMSEKDPKLLPFQGYILQNFDLNDKGFCKVKITKDILEKFQIQPNEASLFVNTIADIRGLKIWMFGVDEGDQIRCRLRSKGHIIINDVANTFGGGGHPNASGVSVNSWEQFEQLAEALNDKL | failed
